# Assay results taken from paper PMC5937523 (Biochemistry, 2017).
# T1: human KDAC8 (lysine deacetylase 8) (human) (UniProt Q9BY41)
# T1 sequence: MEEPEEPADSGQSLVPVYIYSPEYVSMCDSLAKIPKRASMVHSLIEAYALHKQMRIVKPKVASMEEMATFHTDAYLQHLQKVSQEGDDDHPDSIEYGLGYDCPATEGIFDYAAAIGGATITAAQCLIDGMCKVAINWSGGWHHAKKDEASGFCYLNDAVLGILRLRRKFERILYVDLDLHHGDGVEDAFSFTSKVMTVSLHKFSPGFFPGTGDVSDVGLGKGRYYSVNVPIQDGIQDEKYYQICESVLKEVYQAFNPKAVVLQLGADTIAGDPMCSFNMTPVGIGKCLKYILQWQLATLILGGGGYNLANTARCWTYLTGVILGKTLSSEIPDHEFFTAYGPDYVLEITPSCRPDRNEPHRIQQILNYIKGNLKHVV
# T2: KDAC6 (Homo sapiens, UniProt Q9UBN7)
# T2 sequence (Q9UBN7 1-1215): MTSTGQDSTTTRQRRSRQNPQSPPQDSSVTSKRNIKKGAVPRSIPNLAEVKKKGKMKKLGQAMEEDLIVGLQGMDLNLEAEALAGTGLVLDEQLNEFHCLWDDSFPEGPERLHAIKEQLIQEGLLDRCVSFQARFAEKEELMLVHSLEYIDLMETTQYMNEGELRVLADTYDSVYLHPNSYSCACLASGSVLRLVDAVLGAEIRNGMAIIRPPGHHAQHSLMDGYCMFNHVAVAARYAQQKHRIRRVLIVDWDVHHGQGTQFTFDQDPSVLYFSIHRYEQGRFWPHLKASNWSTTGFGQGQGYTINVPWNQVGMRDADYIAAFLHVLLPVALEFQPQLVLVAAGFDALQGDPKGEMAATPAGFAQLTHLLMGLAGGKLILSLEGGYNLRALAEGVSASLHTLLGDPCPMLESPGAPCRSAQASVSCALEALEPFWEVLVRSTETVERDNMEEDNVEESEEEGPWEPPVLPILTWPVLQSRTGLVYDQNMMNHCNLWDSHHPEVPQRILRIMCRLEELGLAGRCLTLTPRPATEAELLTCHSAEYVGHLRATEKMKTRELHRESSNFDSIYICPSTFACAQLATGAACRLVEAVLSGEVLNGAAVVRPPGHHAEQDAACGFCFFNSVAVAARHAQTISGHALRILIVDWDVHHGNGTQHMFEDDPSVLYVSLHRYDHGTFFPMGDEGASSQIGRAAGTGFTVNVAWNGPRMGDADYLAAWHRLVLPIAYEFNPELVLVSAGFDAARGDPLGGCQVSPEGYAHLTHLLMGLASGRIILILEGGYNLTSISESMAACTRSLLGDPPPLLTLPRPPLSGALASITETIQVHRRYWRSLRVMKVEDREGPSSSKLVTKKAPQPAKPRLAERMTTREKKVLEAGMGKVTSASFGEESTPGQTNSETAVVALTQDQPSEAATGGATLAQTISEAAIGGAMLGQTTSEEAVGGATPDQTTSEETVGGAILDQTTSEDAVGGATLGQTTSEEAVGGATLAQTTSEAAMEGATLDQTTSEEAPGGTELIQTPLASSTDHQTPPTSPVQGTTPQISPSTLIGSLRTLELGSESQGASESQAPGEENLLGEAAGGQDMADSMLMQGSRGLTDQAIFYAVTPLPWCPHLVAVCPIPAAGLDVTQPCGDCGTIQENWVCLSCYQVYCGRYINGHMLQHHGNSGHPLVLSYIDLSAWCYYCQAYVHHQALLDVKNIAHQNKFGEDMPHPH
# How the values were obtained:
# [1] = target: T1, human KDAC8 (lysine deacetylase 8) (human)
# [2] = target: KDAC6 (lysine deacetylase 6) (human) (UniProt Q9UBN7)
# KDAC6 = target: T2, KDAC6
Molecule,"KM of steady-state deacetylation kinetics (fluorescamine assay, 25 °C) [1] [µM]","KM of steady-state deacetylation kinetics (fluorescamine assay, 25 °C) [2] [µM]",SAHA inhibition of KDAC6 in the presence and absence of AMC (KDAC6)
{K-ac}W (peptide),> 5000,70,
"O=C(CCCCCCC(=O)Nc1ccccc1)NO [SAHA, suberoylanilide hydroxamic acid]",,,comparable
Ac-RHK(Ac)K(Ac)-NH2 [RH{K-ac}{K-ac}],3100,370,
Ac-RHK(Ac)K(Ac)W-NH2 [RH{K-ac}{K-ac}W],1200,,

# Continued, in another order:
"KM of steady-state deacetylation kinetics (fluorescamine assay, 25 °C) [1] [µM]","KM of steady-state deacetylation kinetics (fluorescamine assay, 25 °C) [2] [µM]",Molecule,SAHA inhibition of KDAC6 in the presence and absence of AMC (KDAC6)
> 5000,,RG{K-ac} (peptide),
2700,,Ac-RGK(Ac)W-NH2 [RG{K-ac}W],
